The values below come from patent US20180371054A1 (published 2018).

Assay [1] concerns the target T1, CD19 (human, UniProt P15391 20-291).
T1 chain: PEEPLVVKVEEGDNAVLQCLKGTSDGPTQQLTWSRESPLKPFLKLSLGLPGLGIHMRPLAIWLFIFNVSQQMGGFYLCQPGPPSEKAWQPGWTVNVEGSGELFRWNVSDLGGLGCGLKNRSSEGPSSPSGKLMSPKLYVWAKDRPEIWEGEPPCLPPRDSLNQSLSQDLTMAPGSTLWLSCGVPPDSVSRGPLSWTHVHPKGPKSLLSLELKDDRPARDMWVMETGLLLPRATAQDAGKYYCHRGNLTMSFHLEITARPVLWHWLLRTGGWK
Kind of assay: binding kinetics.

The target in assay [2] is T1, CD19. Kind of assay: Biacore SPR. (Surface plasmon resonance follows binding to a sensor surface in real time, without labels.)
Another assay deals with CD22 (human, UniProt P20273 20-687). Kind of assay: Biacore SPR.

One may read the Kd as the free concentration of one partner at which half of the binding sites on the other are occupied at equilibrium, for simple one-to-one binding.

B1: CD19ALAb (antibody)
chain: QVQLQQSGAELVRPGSSVKISCKASGYAFSSYWMNWVKQRPGQGLEWIGQIWPGDGDTNYNGKFKGKATLTADESSSTAYMQLSSLASEDSAVYFCARRETTTVGRYYYAMDYWGQGTTVTVSSDIQLTQSPASLAVSLGQRATISCKASQSVDYDGDSYLNWYQQIPGQPPKLLIYDASNLVSGIPPRFSGSGSGTDFTLNIHPVEKVDAATYHCQQSTEDPWTFGGGTKLEIK
As for B1, binding in the assay with CD19 [1] was put at a Kd of 1.1 nM.

B2: Murine CD19ALAb scFv (scFv)
scFv: B1 chain
Molecule B2 had a dissociation constant (Kd) with CD19 [2] of 1.85 nM.

B3: Murine CD22ALAb scFv (scFv)
scFv: QVQLQQPGAELVRPGASVKLSCKASGYTFTNYWINWVKQRPGQGLEWIGNIYPSDSFTNYNQKFKDKATLTVDKSSSTAYMQLSSPTSEDSAVYYCTRDTQERSWYFDVWGAGTTVTVSSDVVMTQTPLSLPVSLGDQASISCRSSQSLVHSNGNTYLHWYLQKPGQSPKLLIYKVSNRFSGVPDRFSGSGSGTDFTLKISRVEAEDLGLYFCSQSTHVPWTFGGGTKLEIK
B3 came in with an equilibrium dissociation constant (Kd) with CD22 of 38 nM. This counts as double-digit nanomolar.

B4: Humanised CD22ALAb scFv (scFv)
scFv: EVQLVESGAEVKKPGSSVKVSCKASGYTFTNYWINWVRQAPGQGLEWIGNIYPSDSFTNYNQKFKDRATLTVDKSTSTAYLELRNLRSDDTAVYYCTRDTQERSWYFDVWGQGTLVTVSSDIVMTQSPATLSVSPGERATLSCRSSQSLVHSNGNTYLHWYQQKPGQAPRLLIYKVSNRFSGVPARFSGSGSGVEFTLTISSLQSEDFAVYYCSQSTHVPWTFGQGTRLEIK
Consider B4, for which binding with CD22 was put at a Kd of 32 nM.
